From US20130302329A1, “DIAGNOSTIC TESTS FOR IMMUNE REACTIVITY WITH HUMAN ENDOTHELIAL CELL GROWTH FACTOR” (TRUSTEES OF BOSTON UNIVERSITY, priority 2010, published 2013)

Assays:
PBMC [1] = experiment: Retest of peptides with the patient's own PBMC: IFN-γ secretion; type: cell-based, human; conditions: PBMC of patient LA1, second assay
Excerpt: Only two peptide sets (set 33 and set 40) induced proliferation responses that were >2 times background (FIG. 2). Enough cells remained for retesting the first set together and the second peptide set individually. In the second assay, only one peptide induced proliferation and IFN-γ secretion that were >2 times background. This peptide (^340LGRFERMLAAQGGVDPG^355) (SEQ ID NO:1), 1 of the 16 identified by only one of the three search programs, originated from the source protein platelet-derived endothelial cell growth factor (ECGF), also called thymidine phosphorylase or gliostatin.

PBMC [2] = experiment: Testing of subjects' PBMC with commercially available recombinant ECGF; type: cell-based, human
Description: Initially, subjects' PBMC were tested using commercially available recombinant ECGF. […] Consequently, three HLA-DR T-cell epitope prediction algorithms (Wang et al., PLoS Computat. Biol. e1000048 (2008)), were used to identify seven ECGF peptides, including the one peptide identified in the initial patients' sample (ECGF340-365), that were predicted to be presented by the HLA-DR molecules associated with antibiotic-refractory Lyme arthritis. These peptides were synthesized and tested for autoreactivity via IFN-γ ELISPOT assays using patient and control PBMC (FIG. 3). Based upon the values obtained in 14 healthy control subjects (FIG. 3), a positive T cell response was defined as a stimulation index (no. of spots induced by an ECGF peptide /no. of spots in no antigen controls) 3 standard deviation (SD) above the mean of healthy controls, which characteristically gave >40 spot forming units (SFU)/10^6 PBMC and a stimulation index of >8.

Molecule	IFN-γ secretion relative to background (PBMC [1]) [times background]	effect on thymidine incorporation (PBMC [2]; actively dividing cells)	IFN-γ secretion by PBMC (PBMC [2]; subjects' PBMC)
LGRFERMLAAQGVDPG (listed as Homo sapiens) [SEQ ID NO:1, ECGF peptide (index case), HLA-DR-presented, identified in LA1 synovial sample]	> 2		
ECGF: commercially available recombinant human platelet-derived endothelial cell growth factor, also called thymidine phosphorylase or gliostatin (protein, UniProt P19971 11-482, looked up) Thymidine phosphorylase: APPAPGDFSGEGSQGLPDPSPEPKQLPELIRMKRDGGRLSEADIRGFVAAVVNGSAQGAQIGAMLMAIRLRGMDLEETSVLTQALAQSGQQLEWPEAWRQQLVDKHSTGGVGDKVSLVLAPALAACGCKVPMISGRGLGHTGGTLDKLESIPGFNVIQSPEQMQVLLDQAGCCIVGQSEQLVPADGILYAARDVTATVDSLPLITASILSKKLVEGLSALVVDVKFGGAAVFPNQEQARELAKTLVGVGASLGLRVAAALTAMDKPLGRCVGHALEVEEALLCMDGAGPPDLRDLVTTLGGALLWLSGHAGTQAQGAARVAAALDDGSALGRFERMLAAQGVDPGLARALCSGSPAERRQLLPRAREQEELLAPADGTVELVRALPLALVLHELGAGRSRAGEPLRLGVGAELLVDVGQRLRRGTPWLRVHRDGPALSGPQSRALQEALVLSDRAPFAAPSPFAELVLPPQQ		inhibited thymidine incorporation into actively dividing cells	non-specifically induced PBMC to secrete IFN-γ
